Test results: PMC3509150 (2012)

Target: HIV-1 capsid protein (CA), full-length (HIV-1, UniProt P12493 133-363)

B1: CANTDcb1 nanobody with C-terminal 6xHis-tag, purified (VHH)
VHH: QVQLVESGGGLVQAGGSLRLSCAASGYFSSYAMGWFRQAPGKEREFVAAISWIESTTDYADSVKGRFTISRDNAKKTLHLQMNSLKPEDTAVYYCAACDIPFGQAFCALYDYWGQGTQVTVSS
In the case of B1, the koff is reported as 0.00012 s⁻¹.
